Tested on: p53/DNA complex (p21 dsDNA)
Experiment: Electrophoretic mobility shift assay
Type: binding
Settings: phosphorylated p53 8 µM, p21 DNA 4 µM, 14-3-3γ 0–20 µM; 0.8% agarose gel

B1: 14-3-3: recombinant 14-3-3 protein (γ isoform in EMSA, Figure 5A) (protein)
chain: MDDREDLVYQAKLAEQAERYDEMVESMKKVAGMDVELTVEERNLLSVAYKNVIGARRASWRIISSIEQKEENKGGEDKLKMIREYRQMVETELKLICCDILDVLDKHLIPAANTGESKVFYYKMKGDYHRYLAEFATGNDRKEAAENSLVAYKAASDIAMTELPPTHPIRLGLALNFSVFYYEILNSPDRACRLAKAAFDDAIAELDTLSEESYKDSTLIMQLLRDNLTLWTSDMQGDGEEQNKEALQDVEDENQ
p53/DNA complex formation: enhanced the p53/DNA complex formation

From article PMC2566891 (Nucleic Acids Research, 2008)
